In the supplement of paper PMC11136658:

Test system: peptide library, one residue held at a place counted from the Y acceptor
Test: relative phosphorylation of the sub-library (ratio to the mean residue at this position); higher = residue favoured
In short: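 Each value expresses phosphorylation relative to the mean randomized residue. Purified recombinant kinases acted for 90 min in 384-well plates on biotinylated Tyr-centred peptide library mixtures, with one residue fixed at one position from −5 to +5, in the presence of 50 μM ATP with γ-32P-ATP. Signals were read by phosphorimaging after capture on streptavidin membranes, then normalized per position to the sum of the 18 randomized residues (16 in the Ser/Thr-free library) and multiplied by that number.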

Sequence of EPHA5, construct: aa662-948, human (P54756 662-948, looked up): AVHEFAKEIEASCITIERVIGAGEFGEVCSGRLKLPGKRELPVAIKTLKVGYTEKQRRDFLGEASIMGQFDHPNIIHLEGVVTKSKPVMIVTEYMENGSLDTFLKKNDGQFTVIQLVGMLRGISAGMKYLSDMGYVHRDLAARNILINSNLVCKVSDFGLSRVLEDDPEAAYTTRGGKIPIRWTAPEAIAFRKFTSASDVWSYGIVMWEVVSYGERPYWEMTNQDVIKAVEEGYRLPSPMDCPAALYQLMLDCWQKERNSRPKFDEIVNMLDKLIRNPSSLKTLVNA
Sequence of DDR1, construct: aa444-end, human (Q08345 444-913, looked up): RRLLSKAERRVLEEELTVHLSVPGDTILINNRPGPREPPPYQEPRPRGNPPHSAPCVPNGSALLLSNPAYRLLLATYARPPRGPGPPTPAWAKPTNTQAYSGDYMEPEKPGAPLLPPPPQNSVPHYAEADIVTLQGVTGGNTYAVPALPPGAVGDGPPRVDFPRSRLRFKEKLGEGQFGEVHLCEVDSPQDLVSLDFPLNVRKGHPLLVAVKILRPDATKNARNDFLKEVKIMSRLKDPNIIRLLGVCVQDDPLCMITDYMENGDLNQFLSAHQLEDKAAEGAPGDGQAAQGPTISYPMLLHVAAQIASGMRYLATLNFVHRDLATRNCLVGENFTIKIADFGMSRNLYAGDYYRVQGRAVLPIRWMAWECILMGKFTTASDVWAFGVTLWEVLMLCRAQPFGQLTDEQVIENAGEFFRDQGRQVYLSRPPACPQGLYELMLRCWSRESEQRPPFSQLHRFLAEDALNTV

DDR1, construct: aa444-end, human (from UniProt Q08345)
relative phosphorylation
Settings	at +1	at +2	at +3	at +4	at +5	at -1	at -2	at -3	at -4	at -5
A fixed	1.61	0.998	0.762	0.858	0.675	1.07	1.08	1.02	1.18	1.16
D fixed	0.629	0.815	0.717	0.883	0.561	1.35	0.723	0.719	0.772	0.767
E fixed	0.665	1.36	0.716	0.964	0.549	0.785	0.748	0.717	0.798	0.759
F fixed	1.62	1.04	1.38	2.72	3.66	1.13	0.804	1.18	1.16	1.38
G fixed	0.639	0.629	0.633	0.621	0.701	0.7	1.07	0.946	1.05	1.06
H fixed	1.07	0.986	1.16	1.19	1.03	1.14	1.24	1.45	1.13	1.13
I fixed	0.955	1.1	1.63	1.01	1.49	0.938	0.721	0.828	0.716	0.728
K fixed	0.817	0.809	0.736	0.743	0.623	0.81	1.44	1.35	1.4	1.34
L fixed	0.781	1.42	1.56	0.985	1.21	0.958	0.794	0.773	0.81	0.736
M fixed	0.972	1.26	1.58	0.982	1.08	0.825	0.79	0.82	0.949	0.816
N fixed	0.846	0.891	0.755	0.75	0.586	2.03	1.24	1.05	0.924	1.03
P fixed	0.677	0.738	0.619	0.752	1.05	0.971	1.18	0.871	1.05	1.02
Q fixed	0.916	0.888	0.74	0.806	0.598	0.934	1.05	0.96	1.09	1.02
R fixed	0.963	0.845	0.784	0.807	0.732	0.806	1.63	1.49	1.48	1.44
S fixed	0.974	0.796	0.602	0.56	0.617	0.92	1.11	0.975	0.835	0.896
T fixed	1.14	0.912	0.744	0.678	0.667	0.835	0.904	0.91	0.829	0.853
V fixed	1.72	1.29	1.46	1.25	1.02	0.917	0.73	0.786	0.798	0.823
W fixed	1	1.22	1.43	1.44	1.14	0.886	0.747	1.15	1.03	1.04
pThr fixed	0.793	1.37	0.799	1.1	0.686	0.743	0.653	0.678	0.726	0.775
pTyr fixed	1.03	2	0.914	1.43	0.653	0.867	0.713	0.849	0.908	0.953

EPHA5, construct: aa662-948, human (from UniProt P54756)
relative phosphorylation
Settings	at +1	at +2	at +3	at +4	at +5	at -1	at -2	at -3	at -4	at -5
A fixed	1.5	0.555	0.644	0.75	1	0.44	1.06	0.741	1.03	0.879
D fixed	1.25	1.88	0.493	1.3	1.25	2.92	1.34	1.4	1.22	1.11
E fixed	3.4	2.46	0.463	1.35	1.27	1.59	1.56	1.74	1.5	1.07
F fixed	0.713	1.41	1.41	1.07	1.01	1.03	0.671	1.35	1.11	1.06
G fixed	0.825	0.275	0.426	1.21	1.2	0.215	1.14	0.85	1.18	1.14
H fixed	0.529	0.834	0.862	1.2	0.903	0.651	0.89	1.03	1.02	1.08
I fixed	1.05	0.877	2.62	0.716	0.778	1.83	0.725	0.845	0.83	0.973
K fixed	0.174	0.329	0.218	0.638	0.64	0.203	0.779	0.604	0.778	0.921
L fixed	0.847	0.869	1.85	0.707	0.916	1.74	0.789	0.877	1	0.983
M fixed	1.53	0.976	1.37	0.965	0.97	0.815	0.604	0.935	0.891	1.02
N fixed	0.48	1.18	0.477	0.805	0.906	2.59	1.28	1.12	0.966	1.11
P fixed	0.144	0.481	1.39	1.19	1.53	0.333	1.21	0.953	1.16	0.983
Q fixed	1.31	0.857	0.867	1.01	0.961	0.465	1.23	0.966	1.2	1.18
R fixed	0.224	0.47	0.35	0.832	0.763	0.232	0.883	0.751	0.885	0.968
S fixed	0.756	0.622	0.514	0.925	1.04	0.437	1.39	0.868	0.749	0.822
T fixed	0.62	0.772	0.563	0.937	0.859	0.924	0.885	0.893	0.64	0.824
V fixed	1.5	0.912	1.95	0.729	0.802	0.932	0.829	0.806	0.776	0.757
W fixed	1.15	2.25	1.52	1.68	1.2	0.662	0.729	1.29	1.05	1.12
pThr fixed	1.77	2.65	0.559	1.37	1.06	1.87	1.13	0.996	0.952	0.917
pTyr fixed	2.61	6.1	1.08	1.72	1.61	2.82	1.52	1.25	1.29	1.15
